Assays:
[1] = molecular target: clade 1a RBDs (SARS-CoV-1-related sarbecoviruses), yeast-displayed; test: flow cytometry on cells
[2] = molecular target: clade 1b RBDs (SARS-CoV-2-related sarbecoviruses), yeast-displayed; test: flow cytometry on cells

B1: C68.61 (antibody, V domains shown)
VH: EVQLVQSGAEVKKPGESLKISCKGSAYIFTRYWIGWVRQMPGKGLEWMGIIYPGDSDTRYSPSFQGQVTISADKSISTAYLQWSSLKASDTAMYYCARSGTTNYFDYWGQGTLVTVSS
VL: DIQLTQSPSTLSASVGDRVTITCRASQSISSWLAWYQQKPGKAPKLLIYDASSLDSGVPSRFSGSGSGTDFTLTISSLQPDDFATYYCQQFNSYWTFGQGTKVEIK
B1 gave a geomean EC50 across the clade [1] of 1.9 ng/mL and a geomean EC50 across the clade [2] of 0.25 ng/mL.
